Test results published in article PMC6838084, “Direct, gabapentin-insensitive interaction of a soluble form of the calcium channel subunit α2δ-1 with thrombospondin-4” (Scientific Reports, 2019).

B1: thrombospondin-4 (TSP-4), recombinant full-length rat, N-terminal double strep II-tag (natural protein)
chain: not shown
notes: thrombospondin-4, rat, called full-length; the PCR product lacks the natural signal peptide and was cloned in frame with the BM-40 signal peptide; A thrombin cleavage site lies between the tag and the protein; Pentamer held by interchain disulphide bonds; glycosylated; also called full-length pentameric TSP-4; source: HEK293-EBNA, secreted, purified from culture supernatant (streptactin-sepharose)
B2: cartilage oligomeric matrix protein (COMP, TSP-5), recombinant full-length rat, N-terminal double strep II-tag (natural protein)
chain: not shown
notes: cartilage oligomeric matrix protein, rat, called full-length; the PCR product lacks the natural signal peptide and was cloned in frame with the BM-40 signal peptide; A thrombin cleavage site lies between the tag and the protein; Pentamer held by interchain disulphide bonds; also called TSP-5/COMP; source: HEK293-EBNA, secreted, purified from culture supernatant (streptactin-sepharose)
B3: thrombospondin-2 (TSP-2), recombinant full-length murine, N-terminal double strep II-tag (natural protein)
chain: not shown
notes: thrombospondin-2, mouse, called full-length; the PCR product lacks the natural signal peptide and was cloned in frame with the BM-40 signal peptide; A thrombin cleavage site lies between the tag and the protein; Trimer held by interchain disulphide bonds; heavily glycosylated; source: HEK293-EBNA, secreted, purified from culture supernatant (streptactin-sepharose)

Target: the molecule itself
Test: SDS-PAGE and immunoblot without and with DTT; purified proteins separated under non-reducing and reducing conditions; composite agarose/polyacrylamide gel for intact TSPs; oligomers held by interchain disulphide bonds

Protein | stoichiometry N
B1 | 5
B2 | 5
B3 | 3
